{
  "source": "paper PMC10732398",
  "about": "(PLOS Pathogens, 2023)",
  "key": {"CD4 D1D2": {"test_system": "CD4 D1D2", "assay": "SPR cross-inhibition: ⍺4β7 binding to immobilized CD4 D1D2 after preincubation of the surface with CD4 mAbs", "conditions": "surface preincubated with mAb, Fig 8C", "from_the_text": "Fig 8 Mutating a gp120 contact site in CD4 D1 abrogates CD4-⍺4β7 interactions. (A) Positions of amino acid substitutions introduced into D1D2-Ig⍺tp are indicated on a space-filling model of CD4 D1D2. Substitutions at S42/F43 in D1 (green) and K171 in D2 (purple) are shown. Approximate locations of mAb Leu3A and ibalizumab epitopes are indicated. (B) Flow-cytometric analysis of increasing amounts of D1D2-Ig⍺tp and mutant derivatives binding to ⍺4β7 on CD8^+ T cells. Y-axis indicates % cells bound. (C) SPR analysis of soluble ⍺4β7 binding to a D1D2 coated surface following preincubation of the surface with ibalizumab (red), mAb Leu3A (light green), or ⍺4β7 (dark green). Y-axis indicates the mass of soluble ⍺4β7 bound at the end of the association phase. Mass of prebound inhibitors is subtracted. (D) Flow-cytometric analysis of unlabeled gp120 inhibiting PE labeled D1D2-Ig⍺tp binding to ⍺4β7 on CD8^+ T cells. The integrin ⍺4 antagonist FG was employed as a control. Y-axis indicates MFI.\nExperiments were performed using a Biacore 3000 instrument (Cytiva Life Sciences) using CM4 or CM5 sensor chips. The data were evaluated using BIAevaluation 4.1.1 software (Cytiva Life Sciences). […] The ability of each analyte to inhibit either itself or ⍺4β7 was determined by comparing the binding of ⍺4β7 in the absence or presence of the listed pre-bound analytes as previously described. […]"}, "⍺4β7 on RPMI8866 cells [1]": {"test_system": "⍺4β7 on RPMI8866 cells", "assay": "Flow cytometry: MAdCAM-Ig staining of RPMI8866 cells with ⍺4 and β7 antagonists", "format": "binding, human", "conditions": "antagonist at 1 μg/ml", "from_the_text": "(§1) Several mAbs and small molecule antagonists of ⍺4β7 and ⍺4β1 have been developed to treat diseases, including IBD and MS. […] Vedolizumab and etrolizumab are β7 mAbs, based on murine mAbs Act-1 and FIB504, respectively. Both are used to treat IBDs, [50, 51]. Natulizumab is an ⍺4 specific humanized version of the mouse mAb HP2/1 used to treat Multiple Sclerosis (MS). […] To determine whether these antagonists block CD4 binding to α4β7, we stained RPMI8866 cells with D1D2-Ig⍺tp in the absence or presence of increasing concentrations of each (Fig 3).\n(§2) Y-axis indicates gMFI. Dashed and solid lines represent gMFI of D1D2-Ig⍺tp and MAdCAM-Ig respectively, in the absence of any antagonist.\n(§3) Cells were stained with fluoresceine conjugated mAbs or recombinant proteins using standard procedures preceded by Fc receptor blocking with human IgG. Buffers used were 10 mM HEPES 150 mM NaCl (HBS Buffer) with 100 μM CaCl2. 1 mM MnCl2 was also included, unless otherwise specified."}, "⍺4β7 on RPMI8866 cells [2]": {"test_system": "⍺4β7 on RPMI8866 cells", "assay": "Flow cytometry: D1D2-Ig⍺tp staining of RPMI8866 cells with ⍺4 and β7 antagonists", "format": "binding, human", "conditions": "antagonist at 10 μg/ml, 1 mM MnCl2", "from_the_text": "as §1, §2, §3"}, "[3]": {"test_system": "⍺4β7 on primary CD8^+ T cells", "assay": "Flow cytometry: FAM-conjugated pCD4^165-178 binding to RA-treated primary CD8^+ T cells", "design": "species or system human", "conditions": "FAM-Ttds-labelled peptide 1.25 μg/200,000 cells in 100 μl; MnCl2; 3 independent experiments", "from_the_text": "To further investigate the interaction between pCD4^165-178 and ⍺4β7 we attached a fluorescein dye to its amino terminus via a trioxatridecan-succinamic acid (Ttds) linker (Fig 5A). A scrambled pCD4^165-178 was employed as a control. […] FIB504 and vedolizumab inhibited binding by ~50%. This inhibition pattern resembles the one we obtained when inhibiting D1D2-Ig⍺tp with the same antagonists (Fig 3). We conclude that the CD4 D2 G β-strand binds directly to the headpiece region of ⍺4β7 in a cation dependent manner. Support for this conclusion, in the form of site directed mutagenesis within the D2 G β-strand is provided below.\nFig 5 Direct binding of pCD4^165-178 to ⍺4β7 on primary T cells. (A) Sequence of FAM -conjugated pCD4^165-178 and a scrambled derivative (FAM-scr pCD4^165-178). (B) Flow-cytometry derived histogram of pCD4^165-178 binding to RA -cultured CD8^+ T cells. pCD4^165-178 in the presence (green), or absence of Mn^++(black). Unstained cells are shown (grey). (C) Binding of pCD4^165-178 and its scrambled derivative to CD8^+ T cells in the presence of MnCl2 as in panel B, and in the presence of ⍺4 and ⍺4β7 antagonists, as indicated. Y-axis indicates % cells bound. Error bars represent standard error from 3 independent experiments.\nCells were stained with fluoresceine conjugated mAbs or recombinant proteins using standard procedures preceded by Fc receptor blocking with human IgG. Buffers used were 10 mM HEPES 150 mM NaCl (HBS Buffer) with 100 μM CaCl2. 1 mM MnCl2 was also included, unless otherwise specified. Buffer without divalent cations included 0.1 mM EDTA. Unlabeled mAb or protein inhibitors were preincubated with cells or proteins at a 5X molar excess for 15 min on ice. FAM labeled peptides were used at 1.25 μg/ 200,000 cells in a 100 μl volume. Data were acquired using a FACSCanto II (BD Biosciences) and analyzed with FlowJo software (BD Biosciences). Plotted MFI values represent absolute values."}, "⍺4β7": {"test_system": "⍺4β7", "assay": "SPR binding kinetics: recombinant ⍺4β7 passed over ligand-coated surfaces (S1 Table)", "conditions": "SPR Biacore 3000, ligand immobilized, ⍺4β7 analyte, HBS pH 7.4, 1 mM MnCl2, 25°C", "description": "To measure the specific affinity of CD4–⍺4β7 interactions we developed a surface plasmon resonance (SPR) -based assay in which recombinant ⍺4β7 was passed over a surface coated with a 23 kD D1D2 protein (aa 1–183). For comparison we prepared surfaces with recombinant MAdCAM-Ig, VCAM-Ig, monomeric gp120, and a SOSIP env trimer (S1 Table). Assays were carried out in the presence of MnCl2 to present ⍺4β7 in an active conformation. […] This rate of dissociation was similar to that of both MAdCAM-Ig and VCAM-Ig with ⍺4β7 and is indicative of a relatively high-affinity interaction.\nExperiments were performed using a Biacore 3000 instrument (Cytiva Life Sciences) using CM4 or CM5 sensor chips. The data were evaluated using BIAevaluation 4.1.1 software (Cytiva Life Sciences). The chip surface was activated by injecting 35 μl of a 1:1 mixture of 0.05 M N-hydroxysuccinimide and 0.2 M N-ethyl-N-(dimethylaminopropyl) carbodiimide at 5 μl/min. NeutrAvidin, HIV gp120, sCD4 (D1D2) or Hu-MAdCAM-Ig (R&D Systems) at concentrations of 5 μg/ml in 10mM NaOAc, pH 4.5, were immobilized to 250–750 resonance units (RU). After the proteins were immobilized to the desired densities, unreacted sites were blocked with 35 μl of 1 M Tris-HCl (pH 8.0). Biotinylated cyclic V2 peptides (1 μg/ml in 20 mM Tris-HCl, pH 8.0) were bound to the NeutrAvidin surfaces to densities of approximately 250–300 RU. One surface was activated and blocked without ligand as a control surface for non-specific binding. Signal from the control surface was subsequently subtracted. Running buffer was HBS (pH 7.4), 1 mM MnCl2, 0.005% Tween- 20, 0.05% soluble carboxymethyl-dextran. Binding experiments were carried out at a flow rate of 25 μl/min at 25°C. After a 2 min injection, the surface was washed for an additional 2 min in running buffer allowing dissociation of the bound ligand from the surface. The surfaces were regenerated by multiple injections of 4.5 M MgCl2 at a flow rate of 100 μl/min. Inhibition of ⍺4β7 binding by linear V2-loop and CD4 derived peptides was carried out by pre-incubating ⍺4β7 with the peptides in running buffer at the indicated concentrations for 2 hours at room temperature prior to passing them over the prepared surfaces as described above. Cross-inhibition experiments were performed by passing either buffer or the listed analytes over a surface to which sCD4 (D1D2) had been immobilized, followed by a secondary sequential injection of ⍺4β7. The ability of each analyte to inhibit either itself or ⍺4β7 was determined by comparing the binding of ⍺4β7 in the absence or presence of the listed pre-bound analytes as previously described. Illustration of the dynamic range of range of linear peptide inhibition assays is provided in S4 Fig."}, "⍺4β7 on RPMI8866 cells [4]": {"test_system": "⍺4β7 on RPMI8866 cells", "assay": "Flow cytometry: ligand staining of ⍺4β7-expressing cells in buffers with different divalent cations", "format": "binding, human", "conditions": "absence of divalent cations (0.1 mM EDTA)", "from_the_text": "Fig 1 Binding of soluble CD4 to ⍺4β7 on CD4^+ T cells. (A) Schematic of D1D2-Ig⍺tp. (B) Flow-cytometry histogram of PE-conjugated D1D2-Ig⍺tp staining of CD4^+ T cells alone (blue) or in the presence of either the anti ⍺4 mAb 2B4 (green) or an irrelevant mAb (black-dashed). Cells stained with PE-conjugated MicA-Ig⍺tp (red), along with unstained cells (grey) are included. X-axis indicates geometric mean fluorescence intensity (gMFI). (C) 293T cells untransfected or co-transfected with ⍺4 and β7 expression vectors stained with either PE-D1D2-Ig⍺tp or PE-MAdCAM-Ig in the absence or presence of the ⍺4 antagonist FG. Y-axis indicates gMFI. (D) CD4^+ T cells stained with anti CD45RO (x-axis) anti β7 (y-axis) (left), or with anti CD45RO (x-axis) and D1D2-Ig⍺tp (y-axis) (right). % cells in each quadrant, as indicated. (E) CD4^+ T cells stained as in B, with lower MW forms of oligomerized D1D2-Ig⍺tp. Left Y-axis indicates gMFI (bars), right Y-axis indicates relative MW (kDa) (•). […]\n(§4) Cells were stained with fluoresceine conjugated mAbs or recombinant proteins using standard procedures preceded by Fc receptor blocking with human IgG. […] Data were acquired using a FACSCanto II (BD Biosciences) and analyzed with FlowJo software (BD Biosciences). […]"}, "⍺4β7 on RPMI8866 cells [5]": {"test_system": "⍺4β7 on RPMI8866 cells", "assay": "Flow cytometry: cross-inhibition of MAdCAM-Ig, VCAM-Ig and D1D2-Ig⍺tp binding to RPMI8866 cells", "design": "species or system human", "conditions": "increasing concentrations of unlabeled inhibitor, Fig 2C, 2D", "description": "Cis interactions between various integrins and leukocyte receptors are known to regulate immune cell functions. To determine whether CD4 inhibits MAdCAM-1 or VCAM-1 binding to ⍺4β7 we preincubated RPMI8866 cells with labelled MAdCAM-Ig or VCAM-Ig in the presence of increasing concentrations of unlabeled D1D2-Ig⍺tp. […] This implies that MAdCAM-1 and VCAM-1, acting in trans, may interfere with CD4-⍺4β7 interactions. What remains unknown is whether interactions between ⍺4β7 and CD4 impact CD4 migration into the TCR and subsequent interactions with MHC II (Fig 2E).\nFig 2 Cross-inhibition of MAdCAM-Ig, VCAM-Ig and D1D2-Ig⍺tp binding to ⍺4β7. Flow cytometric analysis of (A) PE -conjugated MAdCAM-Ig or (B) PE -conjugated VCAM-Ig binding to RPMI8866 cells pre-incubated with increasing concentrations of unlabeled D1D2-Igαtp. Cell preincubated with increasing concentrations of (C) unlabeled MAdCAM-Ig or (D) VCAM-Ig followed by PE -conjugated D1D2-Ig⍺tp. Y-axis indicates gMFI. Dashed line indicates gMFI in the absence of any inhibitor.\nas §4, with “IgG. Buffers used were 10 mM HEPES 150 mM NaCl (HBS Buffer) with 100 μM CaCl2.” for “IgG.”"}},
  "data": [
    {"molecule": "Ibalizumab: CD4 D2 mAb", "values": [
      {"measurement": "inhibition of ⍺4β7 binding to surface immobilized CD4 D1D2 (in words)", "setting": "CD4 D1D2", "value": "failed to inhibit"}
    ]},
    {"molecule": "Vedolizumab: β7 mAb based on murine mAb Act-1", "values": [
      {"measurement": "inhibition of MAdCAM-Ig binding (in words)", "setting": "⍺4β7 on RPMI8866 cells [1]", "value": "blocked MAdCAM-Ig efficiently"},
      {"measurement": "reduction of D1D2-Ig⍺tp binding", "setting": "⍺4β7 on RPMI8866 cells [2]", "value": "~ 50%"},
      {"measurement": "reduction of pCD4^165-178 binding to CD8^+ T cells", "setting": "[3]", "value": "~ 50%"}
    ]},
    {"molecule": "VCAM-Ig: recombinant VCAM-1 Ig fusion, R&D Systems (protein, left off: Ig (Fc, from the name VCAM-Ig), end not stated, kept, recombinant VCAM-1 Ig fusion, R&D Systems) FKIETTPESRYLAQIGDSVSLTCSTTGCESPFFSWRTQIDSPLNGKVTNEGTTSTLTMNPVSFGNEHSYLCTATCESRKLEKGIQVEIYSFPKDPEIHLSGPLEAGKPITVKCSVADVYPFDRLEIDLLKGDHLMKSQEFLEDADRKSLETKSLEVTFTPVIEDIGKVLVCRAKLHIDEMDSVPTVRQAVKELQVYISPKNTVISVNPSTKLQEGGSVTMTCSSEGLPAPEIFWSKKLDNGNLQHLSGNATLTLIAMRMEDSGIYVCEGVNLIGKNRKEVELIVQEKPFTVEISPGPRIAAQIGDSVMLTCSVMGCESPSFSWRTQIDSPLSGKVRSEGTNSTLTLSPVSFENEHSYLCTVTCGHKKLEKGIQVELYSFPRDPEIEMSGGLVNGSSVTVSCKVPSVYPLDRLEIELLKGETILENIEFLEDTDMKSLENKSLEMTFIPTIEDTGKALVCQAKLHIDDMEFEPKQRQSTQTLYVNVAPRDTTVLVSPSSILEEGSSVNMTCLSQGFPAPKILWSRQLPNGELQPLSENATLTLISTKMEDSGVYLCEGINQAGRSRKEVELIIQVTPKDIKLTAFPSESVKEGDTVIISCTCGNVPETWIILKKKAETGDTVLKSIDGAYTIRKAQLKDAGVYECESKNKVGSQLRSLTLDVQGRENNKDYFSPE", "values": [
      {"measurement": "KA", "setting": "⍺4β7", "value": "2.76e+07", "unit": "M⁻¹"},
      {"measurement": "ka", "setting": "⍺4β7", "value": 38700, "unit": "M⁻¹ s⁻¹"},
      {"measurement": "kd", "setting": "⍺4β7", "value": 0.00141, "unit": "s⁻¹"},
      {"measurement": "binding to ⍺4β7 (in words)", "setting": "⍺4β7 on RPMI8866 cells [4]", "value": "failed to bind"},
      {"measurement": "inhibition of PE-conjugated D1D2-Ig⍺tp binding to ⍺4β7 (in words)", "setting": "⍺4β7 on RPMI8866 cells [5]", "value": "inhibited D1D2-Ig⍺tp binding to ⍺4β7 in a dose dependent manner"}
    ]}
  ]
}
